{"source": "patent US20190248902A1", "about": "(published 2019)", "binders": {"B1": {"name": "72G9 (antibody, V domains shown)", "VH": "EVQLVESGGGLVKPGGSLRLSCAASGFTFSSYSMNWVRQAPGKGLEWVSSISGSSSYIYYADSVKGRFTISRDNAKNSLYLQMNSLRAEDTAVYFCARGGSRGFDPWGQGTLVTVSS", "VL": "DIQMTQSPSSLSASVGDRVTITCRASQSITSYLNWYQQKPGKAPKLLIYTASSLQSGVPSRFSGSGSGTDFTLTISSLQPEDFATYYCQQSHSFPFTFGPGTKVDIK"}, "B2": {"name": "75G3 (antibody, V domains shown)", "VH": "QVQLQQWGAGLLKPSETLSLTCAVYGGSLSGSYWSWIRQPPGKGLEWIGEINLSGSTNYNPSLKSRVTISVDTSKSQFSLTLRSVTAADTAVYYCARDYGGLDYWGQGTLVTVSS", "VL": "EIVLTQSPGTLSLSPGERATLSCRARQNVDSSYLAWYQQKPGQAPRLLIYGASSRATGIPDRFSGSGSGTDFTLTISRLEPEDFAVFYCQQYERSPWTFGQGTKVEIK"}, "B3": {"name": "176H4 (antibody, V domains shown)", "VH": "QVQLVESGGGVVQPGRSLRLSCAASGFTFSSYGMHWVRQAPGKGLEWVAIIWYDGSYKYYADSVKGRFTISRDNSKNTLYLQMSSLRAEDTAVYYCARDAHDFWSGYFAYWGQGALVTVSS", "VL": "DIVMTQTPLSLSVTPGQPASISCKSSQSLLHGDGKTYLYWYLQKPGQPPQLLIYEVSNRFSGVPDRFSGSGSGTDFTLKISRVEAEDVGIYYCMQSIQIPWTFGQGTRVEIK"}, "B4": {"name": "184E7 (antibody, V domains shown)", "VH": "QVQLVQSGAEVKTPGASVKVSCRASGYTFTSYNMHWVRQVPGQGLEWMGWINPNNGGSNYTQKFQGRVTMTRDTSISTAYMELSRLRSDDTAVYYCARKFGDWGQGTLVTVSS", "VL": "DIQMTQSPSSRSASIGERVTITCRASQGISNYLAWIQQKPGTAPKSLIYAASSLQSGVSSRFSGSGFGTDFTITISSVQREDFATYYCQQYNGYPFTFGHGTKVDIK"}, "B5": {"name": "190F8 (antibody, V domains shown)", "VH": "QVQLVESGGGVVQPGRSLRLSCAASGFTFSTYGMHWVRQAPGKGLEWVAVIWYDGSNKNYADSVKGRFTISRDNSKNTLYLQMNSLRAEDTAVYYCARDQGVGYDGLDVWGQGTTVTVSS", "VL": "DIQMTQSPSSLSASVGDRVTITCRTSQGIGNYLAWFQQKPGKAPKSLLYKASSLQSGVPSKFSGSGSGTDFTLTISSLQPEDFATYYCQQYMTYPLTFGGGTKVEIK"}, "B6": {"name": "191G1 (antibody, V domains shown)", "VH": "B5 VH with T31S, K58E, N59H, Q100R, D105Y", "VL": "B5 VL with T25A, G30S, L48I, K50A, Q90H, M92L"}, "B7": {"name": "191G10 (antibody, V domains shown)", "VH": "B5 VH with T31S", "VL": "B5 VL with N31K, A51V"}, "B8": {"name": "198G3 (antibody, V domains shown)", "VH": "B5 VH with R19K, S56T, Y80C", "VL": "B5 VL with T5A, N31K, S56G"}, "B9": {"name": "193E7 (antibody, V domains shown)", "VH": "QVQLQQWGAGLLKPSETLSLTCAVYGGSFSGYFWTWIRQPPGKGLEWIGEINHSGSTNYNPSLKSRVTISVDTSKNQFSLKLSSVTAADTAVYYCARDYGADYWGQGTLVAVSA", "VL": "DIQMTQSPSSLSASVGDRVTITCRASQGIRNDLGWYQQKPGKAPKRLIYSASSLQRGVPSRFSGSGSGTEFTLTISSLQPEDFATYYCLQHKRYPLTFGGGTKVEIK"}, "B10": {"name": "194A4 (antibody, V domains shown)", "VH": "QVQLVQSGTEVKKPGASLKVSCKASGYTFTVYYLNWVRQAPGQGLEWMGWINPNSGGTNYAQKFQGRVTMTRDTSISTAYMELSRLRSDDTAVYYCARGYDILTGWGQGTLVTVSS", "VL": "EIVLTQSPGTLSLSPGERATLSCRASRGVSNIYLAWYQQKPGQAPRLLIYGASNRATGIPDRFSGSGSGTDFTLTISRLEPEDFAVYYCQHNDYSMFTFGPGTKVDIK"}, "B11": {"name": "194C1 (antibody, V domains shown)", "VH": "B5 VH with T31S, K58E, N59H, D99N, Q100R, D105Y", "VL": "B5 VL with T25A, G30S, L48I, K50A, Q89L, Q90H, M92L"}, "B12": {"name": "194C10 (antibody, V domains shown)", "VH": "QVQLQQWGAGLLKPSETLSLTCAVSGGSFRYYYWSWIRQPPGKGLEWFGEINHSGSTNYNPSLKSRVTISIDTSKNQFSLKLRSVTAADTAVYYCARDYGAFDIWGQGTMVTVSS", "VL": "EIVLTQSPGTLSLSPGERATLSCRASPSVNSGYLAWYQQKPGQTPRLLIFGASSRATGIPDRFSASGSGADFTLTISRLEPEDFAVYFCQQYESSPWTFGQGTKVEIK"}, "B13": {"name": "197G3 (antibody, V domains shown)", "VH": "B5 VH with A23V, T31S, Y32H, Q100P, G101S, L107M", "VL": "DIQMTQSPSSLSASVGDRVTITCRASQGIGNHLAWFQQKPGKAPKSLIYAASSLQSGVPSKFSGSRSGTDFSLTISSLQPEDFATYYCQQYSNYPVTFGPGTKVDIK"}, "B14": {"name": "198D2 (antibody, V domains shown)", "VH": "QVQLVESGGGVVQPGRSLRLSCAASGFTFRSYGMHWVRQAPGKGLEWVAVIIYDGSYKYYADSVKGRFTISRDNSKNTLYLQMNSLRAEDTAVYYCARTYSGGMDVWGQGTTVTVSS", "VL": "QSVLTQPPSVSAAPGQKVTISCSGSSSNIGSNYVSWYQQLPGTAPKVLIYDNNKRPSGIPDRFSGSKSGTSATLGITGLQTGDEADYYCGTWDSRLNVGVFGGGTKLTVL"}, "B15": {"name": "202A3 (antibody, V domains shown)", "VH": "QVQLEQSGAEVKKPGASVKVSCKASGYTFTSYDINWVRQATGQGLEWLGWMNPKRGNTGYAQKFQGRVTMTRNTSISTAHMELSSLRSEDTAVYYCARGRYSREDYYYYYDMDVWGQGTTVTVSS", "VL": "DIQMSQSPSSLSASVGDRVTITCRASQGIRNDLGWYQQKPGKAPKRLICAASRLQSGVPSRFSGSGSGTEFTLTISSLQPEDFAIYYCLQHHDYPFTFGPGTKVDIK"}, "B16": {"name": "218G4 (antibody, V domains shown)", "VH": "QVQLVESGGGVVQPGRSLRLSCAASGFTFSSYGLHWVRQAPGKGLEWVAVIWYDGSNKYYADSVKGRFTISRDNSKNTLYLQMNSLRVEDTAVYYCANWYYYYYGMDVWGQGTTVTVSS", "VL": "B14 VL with S31N, V47L, I49L, N52S, D61A, R95S, V98T, G99V"}, "B17": {"name": "4H6 (antibody, V domains shown)", "VH": "QVQLVQSGAEVKKPGASVKVSCKASGYTFTDYYLHWVRQAPGQGLEWMGWIHPNSGGTNYAQKFQGRVTMTRDTSISTAYMGLSSLRSDDTAVYYCARDGTSSFDYWGQGTLVTVSS", "VL": "B1 VL with L11V, S28G, T30S, S31R, Y32W, N34A, T50G, T85I, S91A, H92N", "notes": "tested as antibody purified from hybridoma supernatant or made recombinantly"}}, "note": "Numbering of substitutions follows the chain as printed."}
{"biological_target": "T1, human ASGR-1 (human, UniProt P07306 1-291)", "T1 construct": "Stably expressed on CHO-S cells (CHO-S:huASGR-1); The method text says human or mouse ASGR-1 cells were used; also called huASGR-1; hASGR-1", "T1 sequence": "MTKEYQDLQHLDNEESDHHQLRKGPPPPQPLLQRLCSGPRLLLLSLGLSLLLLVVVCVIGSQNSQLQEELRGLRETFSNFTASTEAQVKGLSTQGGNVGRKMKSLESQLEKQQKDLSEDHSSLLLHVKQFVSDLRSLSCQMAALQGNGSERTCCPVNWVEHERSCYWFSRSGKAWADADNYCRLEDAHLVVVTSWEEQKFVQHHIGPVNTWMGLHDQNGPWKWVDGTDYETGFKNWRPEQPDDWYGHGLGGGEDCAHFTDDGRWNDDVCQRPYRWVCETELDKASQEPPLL", "test": "FACS ligand blocking on CHO-S ASGR-1 cells; competitor biotinylated asialofetuin", "method": "(§1) All ASGR-1 antibodies that bound either human or mouse ASGR-1 stable CHO—S cells were then tested for ligand blocking using both a protein ligand and a synthetic sugar ligand. The method in brief is as follows: first, 20 ul of either CHO-Shuman or mouse ASGR-1 cells were added to wells of a 384 well plate (30 k cells/well) followed by spin and discarding the supernatant. Second, 10 ul of the antibodies (either purified from hybridoma supernatants or made recombinantly) were added in duplicate to the cells in a dilution series (200 nM top concentration, 1:2 serial dilution, 11 point curve) and were incubated for 30 min at 4 C. […] After 30 min incubation at 4C, the plate was spun and washed twice with FACS buffer+1 mM CaCl2 followed by the detection streptavidin-AF647 at 1:1000 dilution. After 30 min at 4C, the cells were spun and washed once and then 60 ul PI added at 1:1000 dilution and the plates delivered to a core flow cytometry facility. The plates were read and processed similarly to the cell binding method except the signal now represents an inhibition curve and typically decreases a function of increasing antibody concentration. IC50 nM potency and % Inhibition were reported. […] Differences in the ability of antibodies to block these two ligands could occur as a result of differences in, for example, avidity stemming from differences in the number and/or orientation of the ASGR binding terminal sugar residues of each ligand, steric hindrance between antibody and each ligand, and/or changes in the conformation of ASGR induced by antibody binding that selectively alters the binding of each ligand.", "units": {"% Inhibition": "%", "IC50": "nM"}}
{"binder": "B1", "% Inhibition": 20, "IC50": 53}
{"binder": "B2", "% Inhibition": 99, "IC50": 29}
{"binder": "B3", "% Inhibition": 99}
{"binder": "B4", "% Inhibition": 99, "IC50": 23}
{"binder": "B5", "% Inhibition": 98, "IC50": 34}
{"binder": "B6", "% Inhibition": 99, "IC50": 24}
{"binder": "B7", "% Inhibition": 99, "IC50": 27}
{"binder": "B8", "% Inhibition": 99, "IC50": 26}
{"binder": "B9", "% Inhibition": 99, "IC50": 30}
{"binder": "B10", "% Inhibition": 99, "IC50": 57}
{"binder": "B11", "% Inhibition": 99, "IC50": 34}
{"binder": "B12", "% Inhibition": 99}
{"binder": "B13", "% Inhibition": 90, "IC50": 29}
{"binder": "B14", "% Inhibition": 99, "IC50": 22}
{"binder": "B15", "% Inhibition": 98, "IC50": 16}
{"binder": "B16", "% Inhibition": 99, "IC50": 28}
{"binder": "B17", "% Inhibition": 85, "IC50": 12}
{"biological_target": "T1, human ASGR-1", "test": "FACS ligand blocking on CHO-S ASGR-1 cells; labelled ligand biotin-GalNAc-PAA (synthetic sugar)", "method": "as §1", "units": {"% Inhibition": "%", "IC50": "nM"}}
{"binder": "B1", "% Inhibition": 20, "IC50": 24}
{"binder": "B2", "% Inhibition": 99, "IC50": 115}
{"binder": "B3", "% Inhibition": 79}
{"binder": "B4", "% Inhibition": 99, "IC50": 10}
{"binder": "B5", "% Inhibition": 83, "IC50": 44}
{"binder": "B6", "% Inhibition": 78, "IC50": 62}
{"binder": "B7", "% Inhibition": 99, "IC50": 56}
{"binder": "B8", "% Inhibition": 81, "IC50": 5}
{"binder": "B9", "% Inhibition": 60, "IC50": 33}
{"binder": "B10", "% Inhibition": 60, "IC50": 48}
{"binder": "B11", "% Inhibition": 89, "IC50": 72}
{"binder": "B12", "% Inhibition": 99}
{"binder": "B13", "% Inhibition": 74, "IC50": 15}
{"binder": "B14", "% Inhibition": 99, "IC50": 55}
{"binder": "B15", "% Inhibition": 96, "IC50": 32}
{"binder": "B16", "% Inhibition": 99, "IC50": 71}
{"binder": "B17", "% Inhibition": 20, "IC50": 8.1}
